Numbering of substitutions follows the chain as printed. In names and notes the source's numbering stands.
B1: H1.137_L1 (antibody, V domains shown)
VH: EVQLVESGGGLVQPGGSLRLSCAASGFTFSSFGMHWVRQAPGKGLEWVSYISSGSSIIYYADSVKGRFTISRDNAKNSLYLQMNSLRAEDTAVYYCARGGRWVWSPDYWGQGTLVTVSS
VL: DIVMTQSPDSLAVSLGERATINCKSSQSLLNSGNQKNYLTWYQQKPGQPPKLLIYWASTRESGVPDRFTGSGSGTDFTLTISSLQAEDVAVYYCQNDYSYPFTFGSGTKLEIKR
notes: also called VH-L110W; Kabat 98
B2: H1.125_L1 (antibody, human IgG1, kappa, V domains shown)
VH: B1 VH with R101E, W102L
VL: B1 VL
notes: also called VH-R109E; Kabat 97; copies: 2 + 2
B3: H1.139_L1 (antibody, V domains shown)
VH: B1 VH with W102A
VL: B1 VL
notes: also called VH-L110A; Kabat 98
B4: H1.127_L1 (antibody, V domains shown)
VH: B1 VH with R101H, W102L
VL: B1 VL
notes: also called VH-R109H; Kabat 97
B5: H1.138_L1 (antibody, V domains shown)
VH: B1 VH with W102D
VL: B1 VL
notes: also called VH-L110D; Kabat 98
B6: H1.136_L1 (antibody, V domains shown)
VH: B1 VH with W102Y
VL: B1 VL
notes: also called VH-L110Y; Kabat 98
B7: H1.129_L1 (antibody, V domains shown)
VH: B1 VH with R101G, W102L
VL: B1 VL
notes: also called VH-R109G; Kabat 97
B8: H1.116_L1 (antibody, V domains shown)
VH: B1 VH with G100S, W102L
VL: B1 VL
notes: also called VH-G108S; Kabat 96
B9: H1.115_L1 (antibody, V domains shown)
VH: B1 VH with G100A, W102L
VL: B1 VL
notes: also called VH-G108A; Kabat 96
B10: H1.128_L1 (antibody, V domains shown)
VH: B1 VH with R101S, W102L
VL: B1 VL
notes: also called VH-R109S; Kabat 97
B11: H1.119_L1 (antibody, V domains shown)
VH: B1 VH with G100H, W102L
VL: B1 VL
notes: also called VH-G108H; Kabat 96
B12: H1.134_L1 (antibody, V domains shown)
VH: B1 VH with W102F
VL: B1 VL
notes: also called VH-L110F; Kabat 98
B13: H1.118_L1 (antibody, V domains shown)
VH: B1 VH with G100Q, W102L
VL: B1 VL
notes: also called VH-G108Q; Kabat 96
B14: H1.135_L1 (antibody, V domains shown)
VH: B1 VH with W102V
VL: B1 VL
notes: also called VH-L110V; Kabat 98
B15: H1.141_L1 (antibody, V domains shown)
VH: B1 VH with W102K
VL: B1 VL
notes: also called VH-L110K; Kabat 98
B16: H1.114_L1 (antibody, V domains shown)
VH: B1 VH with G99Y, W102L
VL: B1 VL
notes: also called VH-G103Y; Kabat 95
B17: H1.126_L1 (antibody, V domains shown)
VH: B1 VH with R101D, W102L
VL: B1 VL
notes: also called VH-R109D; Kabat 97
B18: H1.124_L1 (antibody, V domains shown)
VH: B1 VH with R101K, W102L
VL: B1 VL
notes: also called VH-R109K; Kabat 97
B19: H1.130_L1 (antibody, human IgG1, kappa, V domains shown)
VH: B1 VH with R101Y, W102L
VL: B1 VL
notes: also called VH-R109Y; Kabat 97; copies: 2 + 2
B20: H1.133_L1 (antibody, V domains shown)
VH: B1 VH with W102I
VL: B1 VL
notes: also called VH-L110I; Kabat 98
B21: H1.131_L1 (antibody, V domains shown)
VH: B1 VH with R101I, W102L
VL: B1 VL
notes: also called VH-R109I; Kabat 97
B22: H1.117_L1 (antibody, V domains shown)
VH: B1 VH with G100T, W102L
VL: B1 VL
notes: also called VH-G108T; Kabat 96
B23: H1.123_L1 (antibody, V domains shown)
VH: B1 VH with G100Y, W102L
VL: B1 VL
notes: also called VH-G108Y; Kabat 96
B24: H1.18_L1 (antibody, human IgG1, kappa, V domains shown)
VH: B1 VH with F32Y, W102L
VL: B1 VL
notes: also called VH-F34Y; Kabat 32Y; copies: 2 + 2
B25: H1.25_L1 (antibody, human IgG1, kappa, V domains shown)
VH: B1 VH with F32K, W102L
VL: B1 VL
notes: also called VH-F34K; Kabat 32K; copies: 2 + 2
B26: H1.20_L1 (antibody, human IgG1, kappa, V domains shown)
VH: B1 VH with F32W, W102L
VL: B1 VL
notes: also called VH-F34W; Kabat 32W; copies: 2 + 2
B27: H1.23_L1 (antibody, human IgG1, kappa, V domains shown)
VH: B1 VH with F32Q, W102L
VL: B1 VL
notes: also called VH-F34Q; Kabat 32Q
B28: H1.24_L1 (antibody, human IgG1, kappa, V domains shown)
VH: B1 VH with F32S, W102L
VL: B1 VL
notes: also called VH-F34S; Kabat 32S; copies: 2 + 2
B29: H1.36_L1 (antibody, human IgG1, kappa, V domains shown)
VH: B1 VH with S52T, W102L
VL: B1 VL
notes: also called VH-S54T; Kabat 52T; copies: 2 + 2
B30: H1.22_L1 (antibody, human IgG1, kappa, V domains shown)
VH: B1 VH with F32H, W102L
VL: B1 VL
notes: also called VH-F34H; Kabat 32H; copies: 2 + 2
B31: H1.30_L1 (antibody, human IgG1, kappa, V domains shown)
VH: B1 VH with G33H, W102L
VL: B1 VL
notes: also called VH-G35H; Kabat 33H
B32: H1.26_L1 (antibody, human IgG1, kappa, V domains shown)
VH: B1 VH with G33A, W102L
VL: B1 VL
notes: also called VH-G35A; Kabat 33A; copies: 2 + 2
B33: H1.21_L1 (antibody, human IgG1, kappa, V domains shown)
VH: B1 VH with F32I, W102L
VL: B1 VL
notes: also called VH-F34I; Kabat 32I; copies: 2 + 2
B34: mAb C H1.19_L1 (antibody, name in Kabat numbering, V domains shown)
VH: B1 VH with F32L, W102L
VL: DIVMTQSPDSLAVSLGERATINCKSSQSLLNSGNQKNYLTWYQQKPGQPPKLLIYWASTRESGVPDRFTGSGSGTDFTLTISSLQAEDVAVYYCQNDYSYPFTFGSGTKLEIK
B35: H1.29_L1 (antibody, human IgG1, kappa, V domains shown)
VH: B1 VH with G33N, W102L
VL: B1 VL
notes: also called VH-G35N; Kabat 33N
B36: H1.27_L1 (antibody, human IgG1, kappa, V domains shown)
VH: B1 VH with G33S, W102L
VL: B1 VL
notes: also called VH-G35S; Kabat 33S; copies: 2 + 2
B37: H1.31_L1 (antibody, human IgG1, kappa, V domains shown)
VH: B1 VH with G33D, W102L
VL: B1 VL
notes: also called VH-G35D; Kabat 33D; copies: 2 + 2
B38: H1.28_L1 (antibody, human IgG1, kappa, V domains shown)
VH: B1 VH with G33T, W102L
VL: B1 VL
notes: also called VH-G35T; Kabat 33T; copies: 2 + 2

biological target: T1, human PD-1-His (human, UniProt Q15116 25-167, limits assumed); experiment: Octet
T1 construct: Antigen of the Octet assays; not shown: His tag
T1 sequence (Q15116 25-167 limits assumed): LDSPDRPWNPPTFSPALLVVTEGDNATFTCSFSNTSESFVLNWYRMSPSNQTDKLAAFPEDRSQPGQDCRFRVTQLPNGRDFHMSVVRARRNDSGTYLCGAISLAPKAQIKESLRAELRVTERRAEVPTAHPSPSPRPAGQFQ

Row | Binder | Kd | koff | kon
1 | B1 | 32.6 nM | 0.0056 s⁻¹ | 172000 M⁻¹ s⁻¹
2 | B2 | 18.7 nM | 0.0052 s⁻¹ | 278000 M⁻¹ s⁻¹
3 | B3 | 98.9 nM | 0.011 s⁻¹ | 111000 M⁻¹ s⁻¹
4 | B4 | 30.8 nM | 0.00578 s⁻¹ | 188000 M⁻¹ s⁻¹
5 | B5 | 116 nM | 0.0128 s⁻¹ | 110000 M⁻¹ s⁻¹
6 | B6 | 54.5 nM | 0.00863 s⁻¹ | 158000 M⁻¹ s⁻¹
7 | B7 | 43.2 nM | 0.00719 s⁻¹ | 167000 M⁻¹ s⁻¹
8 | B8 | 183 nM | 0.0347 s⁻¹ | 190000 M⁻¹ s⁻¹
9 | B9 | 76.7 nM | 0.0116 s⁻¹ | 151000 M⁻¹ s⁻¹
10 | B10 | 32.8 nM | 0.00608 s⁻¹ | 186000 M⁻¹ s⁻¹
11 | B11 | 186 nM | 0.0376 s⁻¹ | 202000 M⁻¹ s⁻¹
12 | B12 | 60.8 nM | 0.0088 s⁻¹ | 145000 M⁻¹ s⁻¹
13 | B13 | 192 nM | 0.0316 s⁻¹ | 164000 M⁻¹ s⁻¹
14 | B14 | 46.7 nM | 0.00685 s⁻¹ | 147000 M⁻¹ s⁻¹
15 | B15 | 118 nM | 0.0132 s⁻¹ | 112000 M⁻¹ s⁻¹
16 | B16 | 592 nM | 0.0875 s⁻¹ | 148000 M⁻¹ s⁻¹
17 | B17 | 43.1 nM | 0.0109 s⁻¹ | 254000 M⁻¹ s⁻¹
18 | B18 | 48.8 nM | 0.00674 s⁻¹ | 138000 M⁻¹ s⁻¹
19 | B19 | 22.1 nM | 0.00505 s⁻¹ | 228000 M⁻¹ s⁻¹
20 | B20 | 49.5 nM | 0.00753 s⁻¹ | 152000 M⁻¹ s⁻¹
21 | B21 | 43.5 nM | 0.00878 s⁻¹ | 202000 M⁻¹ s⁻¹
22 | B22 | 121 nM | 0.0105 s⁻¹ | 86900 M⁻¹ s⁻¹
23 | B23 | 350 nM | 0.0538 s⁻¹ | 154000 M⁻¹ s⁻¹

biological target: T1, human PD-1-His; experiment: Octet; remark: another data set of the same source

Row | Binder | Kd | koff | kon
24 | B24 | 47.9 nM | 0.00597 s⁻¹ | 125000 M⁻¹ s⁻¹
25 | B25 | 113 nM | 0.012 s⁻¹ | 107000 M⁻¹ s⁻¹
26 | B26 | 162 nM | 0.0204 s⁻¹ | 126000 M⁻¹ s⁻¹
27 | B27 | 73.4 nM | 0.00863 s⁻¹ | 118000 M⁻¹ s⁻¹
28 | B28 | 54.9 nM | 0.00688 s⁻¹ | 125000 M⁻¹ s⁻¹
29 | B29 | 374 nM | 0.046 s⁻¹ | 123000 M⁻¹ s⁻¹
30 | B30 | 34 nM | 0.00358 s⁻¹ | 105000 M⁻¹ s⁻¹
31 | B31 | 76.4 nM | 0.0257 s⁻¹ | 337000 M⁻¹ s⁻¹
32 | B32 | 193 nM | 0.036 s⁻¹ | 187000 M⁻¹ s⁻¹
33 | B33 | 27.2 nM | 0.00371 s⁻¹ | 137000 M⁻¹ s⁻¹
34 | B34 | 16.7 nM | 0.00217 s⁻¹ | 130000 M⁻¹ s⁻¹
35 | B35 | 223 nM | 0.0437 s⁻¹ | 196000 M⁻¹ s⁻¹
36 | B36 | 104 nM | 0.0142 s⁻¹ | 137000 M⁻¹ s⁻¹
37 | B37 | 56.4 nM | 0.0401 s⁻¹ | 711000 M⁻¹ s⁻¹
38 | B38 | 92.7 nM | 0.0279 s⁻¹ | 301000 M⁻¹ s⁻¹
